# Data taken from IntAct's records for PubMed 24366543.
# B1: Nuclear factor erythroid 2-related factor 2 (Mus musculus), Q60795 (parent)
# chain: MMDLELPPPGLQSQQDMDLIDILWRQDIDLGVSREVFDFSQRQKDYELEKQKKLEKERQEQLQKEQEKAFFAQFQLDEETGEFLPIQPAQHIQTDTSGSASYSQVAHIPKQDALYFEDCMQLLAETFPFVDDHESLALDIPSHAESSVFTAPHQAQSLNSSLEAAMTDLSSIEQDMEQVWQELFSIPELQCLNTENKQLADTTAVPSPEATLTEMDSNYHFYSSISSLEKEVGNCGPHFLHGFEDSFSSILSTDDASQLTSLDSNPTLNTDFGDEFYSAFIAEPSDGGSMPSSAAISQSLSELLDGTIEGCDLSLCKAFNPKHAEGTMEFNDSDSGISLNTSPSRASPEHSVESSIYGDPPPGFSDSEMEELDSAPGSVKQNGPKAQPAHSPGDTVQPLSPAQGHSAPMRESQCENTTKKEVPVSPGHQKAPFTKDKHSSRLEAHLTRDELRAKALHIPFPVEKIINLPVDDFNEMMSKEQFNEAQLALIRDIRRRGKNKVAAQNCRKRKLENIVELEQDLGHLKDEREKLLREKGENDRNLHLLKRRLSTLYLEVFSMLRDEDGKPYSPSEYSLQQTRDGNVFLVPKSKKPDTKKN
# Variants of: B1
# Details: with keap1_mouse Keap1, Q9Z2X8
# keap1_mouse Keap1, Q9Z2X8, sequence (Q9Z2X8 whole entry): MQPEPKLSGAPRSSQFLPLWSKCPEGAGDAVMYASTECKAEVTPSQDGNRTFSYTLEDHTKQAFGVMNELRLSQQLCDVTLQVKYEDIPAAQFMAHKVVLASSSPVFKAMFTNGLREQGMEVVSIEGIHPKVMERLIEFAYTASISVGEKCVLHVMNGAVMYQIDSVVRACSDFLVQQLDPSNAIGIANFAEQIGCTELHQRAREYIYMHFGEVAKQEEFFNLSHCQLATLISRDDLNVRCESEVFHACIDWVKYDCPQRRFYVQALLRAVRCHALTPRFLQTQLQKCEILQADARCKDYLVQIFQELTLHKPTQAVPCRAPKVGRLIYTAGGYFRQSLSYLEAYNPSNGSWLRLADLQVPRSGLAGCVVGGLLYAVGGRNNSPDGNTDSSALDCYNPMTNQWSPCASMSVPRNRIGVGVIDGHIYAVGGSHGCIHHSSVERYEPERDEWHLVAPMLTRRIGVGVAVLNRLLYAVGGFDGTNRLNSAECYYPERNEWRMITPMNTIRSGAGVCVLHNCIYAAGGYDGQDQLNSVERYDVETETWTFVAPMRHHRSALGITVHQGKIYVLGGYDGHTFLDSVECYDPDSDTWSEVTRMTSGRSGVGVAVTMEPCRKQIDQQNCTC
row,effect of a mutation on the interaction,Variant
1,disrupting interaction,L23R

# Variants of: B1
# Details: with keap1_mouse Keap1, Q9Z2X8
# Remark: another data set of the same source
row,effect of a mutation on the interaction,Variant
1,disrupting interaction,G31A

# Variants of: B1
# Details: with keap1_mouse Keap1, Q9Z2X8
# Remark: another data set of the same source
row,effect of a mutation on the interaction,Variant
1,disrupting interaction,L30F

# Variants of: B1
# Details: with keap1_mouse Keap1, Q9Z2X8
# Remark: another data set of the same source
row,effect of a mutation on the interaction,Variant
1,disrupting interaction,Q26E

# Variants of: B1
# Details: with keap1_mouse Keap1, Q9Z2X8
# Remark: another data set of the same source
row,effect of a mutation on the interaction,Variant
1,disrupting interaction,R34Q

# Variants of: B1
# Details: with keap1_mouse Keap1, Q9Z2X8
# Remark: another data set of the same source
row,effect of a mutation on the interaction,Variant
1,disrupting interaction,W24C

# Variants of: B1
# Details: with keap1_mouse Keap1, Q9Z2X8
# Remark: another data set of the same source
row,effect of a mutation on the interaction,Variant
1,disrupting interaction,W24R

# Variants of: B1
# Details: with keap1_mouse Keap1, Q9Z2X8
# Remark: another data set of the same source
row,effect of a mutation on the interaction,Variant
1,increasing interaction,Q43R

# Variants of: B1
# Details: with keap1_mouse Keap1, Q9Z2X8
# Remark: another data set of the same source
row,effect of a mutation on the interaction,Variant
1,disrupting interaction,I28T

# Variants of: B1
# Details: with keap1_mouse Keap1, Q9Z2X8
# Remark: another data set of the same source
row,effect of a mutation on the interaction,Variant
1,disrupting interaction,D29G

# Variants of: B1
# Details: with keap1_mouse Keap1, Q9Z2X8
# Remark: another data set of the same source
row,effect of a mutation on the interaction,Variant
1,disrupting interaction,D29H

# Variants of: B1
# Details: with keap1_mouse Keap1, Q9Z2X8
# Remark: another data set of the same source
row,effect of a mutation on the interaction,Variant
1,increasing interaction,S33R

# Variants of: B1
# Details: with keap1_mouse Keap1, Q9Z2X8
# Remark: another data set of the same source
row,effect of a mutation on the interaction,Variant
1,disrupting interaction,D27Y

# Variants of: B1
# Details: with keap1_mouse Keap1, Q9Z2X8
# Remark: another data set of the same source
row,effect of a mutation on the interaction,Variant
1,disrupting interaction,V32G
